# Experimental data: patent publication US20230212554A1
# Key:
# [1] = substrate: NP of B/Brisbane/60/2008(fluB) (influenza B virus B/Brisbane/60/2008); assay: ELISA on virus-infected fixed MDCK cells
# [2] = substrate: NP of A/Brisbane/59/2007(H1N1/H1B) (influenza A virus A/Brisbane/59/2007 (H1N1)); assay: ELISA on virus-infected fixed MDCK cells
# [3] = substrate: NP of A/Brisbane/59/2007(H1N1/H1B) (influenza A virus A/Brisbane/59/2007 (H1N1)); assay: sandwich ELISA, capture IgG; NP of lysed virus titrated; HRP-NP16 detection
# [4] = substrate: NP of A/Brisbane/59/2007(H1N1/H1B) (influenza A virus A/Brisbane/59/2007 (H1N1)); assay: sandwich ELISA, capture IgG; NP of lysed virus titrated; HRP-NP17 detection
Binder,EC50 [1],EC50 [2],EC50 [3],EC50 [4]
"NP20 (antibody, V domains shown) VH: EVQLVESGGGLVQPGGSLRLSCAASGFTINGYSIHWVRQAPGKGLEWVASIGPYGGFTYYADSVKGRFTISADTSKNTAYLQMNSLRAEDTAVYYCAGFGFYYWGQGTLVTVSS VL: DIQMTQSPSSLSASVGDRVTITCRASQDVGYGVAWYQQKPGKAPKLLISGASGLYSGVPSRFSGSGSGTDFTLTISSLQPEDFATYYCQQYSSFPLTFGQGTKVEIKR",4.88 nM,–,–,–
"NP25 (antibody, V domains shown) VH: EVQLVESGGGLVQPGGSLRLSCAASGFTIGGGFIHWVRQAPGKGLEWVASIWPYWGFTYYADSVKGRFTISADTSKNTAYLQMNSLRAEDTAVYYCARGSYGYSDYWGQGTLVTVSS VL: DIQMTQSPSSLSASVGDRVTITCRAGQDVSSGVAWYQQKPGKAPKLLISWTSFLYSGVPSRFSGSGSGTDFTLTISSLQPEDFATYYCQQYYDYPITFGQGTKVEIKR",2.17 nM,4.83 nM,–,–
"NP19 (antibody, V domains shown) VH: EVQLVESGGGLVQPGGSLRLSCAASGFTISSWGIHWVRQAPGKGLEWVAGIGPFWGYTSYADSVKGRFTISADTSKNTAYLQMNSLRAEDTAVYYCARFGVDNYGYMDYWGQGTLVTVSS VL: DIQMTQSPSSLSASVGDRVTITCRASQDVSGWVAWYQQKPGKAPKLLISWSTGLYSGVPSRFSGSGSGTDFTLTISSLQPEDFATYYCQQYFNFPVTFGQGTKVEIKR",–,0.295 nM,3.37 nM,0.812 nM
"NP3 (antibody, V domains shown) VH: EVQLVESGGGLVQPGGSLRLSCAASGFTISNYGIHWVRQAPGKGLEWVAGIWPFGGFTSYADSVKGRFTISADTSKNTAYLQMNSLRAEDTAVYYCARFHWNDHGYMDYWGQGTLVTVSS VL: DIQMTQSPSSLSASVGDRVTITCRASQDVGWYVAWYQQKPGKAPKLLIYSTTGLYSGVPSRFSGSGSGTDFTLTISSLQPEDFATYYCQQYYNYPITFGQGTKVEIKR",–,0.521 nM,2.36 nM,1.04 nM
"NP15 (antibody, V domains shown) VH: EVQLVESGGGLVQPGGSLRLSCAASGFTISNWYIHWVRQAPGKGLEWVAGIGPYGGSTYYADSVKGRFTISADTSKNTAYLQMNSLRAEDTAVYYCARFHWDHLHGMDYWGQGTLVTVSS VL: DIQMTQSPSSLSASVGDRVTITCRASQDVDNNVAWYQQKPGKAPKLLISYSTGLYSGVPSRFSGSGSGTDFTLTISSLQPEDFATYYCQQYWNYPITFGQGTKVEIKR",–,0.668 nM,4.61 nM,0.926 nM
"NP22 (antibody, V domains shown) VH: EVQLVESGGGLVQPGGSLRLSCAASGFTISDWSIHWVRQAPGKGLEWVAGIWPYWGSTSYADSVKGRFTISADTSKNTAYLQMNSLRAEDTAVYYCARGFYSWFDYWGQGTLVTVSS VL: DIQMTQSPSSLSASVGDRVTITCRASQDVFSWVAWYQQKPGKAPKLLISSASSLYSGVPSRFSGSGSGTDFTLTISSLQPEDFATYYCQQSWDYPITFGQGTKVEIKR",3.92 nM,7.11 nM,59.4 nM,102 nM
"NP16 (antibody, V domains shown) VH: EVQLVESGGGLVQPGGSLRLSCAASGFTIGNSGIHWVRQAPGKGLEWVAWIGPYWGFTSYADSVKGRFTISADTSKNTAYLQMNSLRAEDTAVYYCARFGNHWHLFMDYWGQGTLVTVSS VL: DIQMTQSPSSLSASVGDRVTITCRASQDVGSYVAWYQQKPGKAPKLLISWTTGLYSGVPSRFSGSGSGTDFTLTISSLQPEDFATYYCQQYFSYPVTFGQGTKVEIKR",–,0.21 nM,4.74 nM,0.89 nM
"NP21 (antibody, V domains shown) VH: EVQLVESGGGLVQPGGSLRLSCAASGFTINGYGIHWVRQAPGKGLEWVAGIWPYGGSTFYADSVKGRFTISADTSKNTAYLQMNSLRAEDTAVYYCARFYNNHGGIMDYWGQGTLVTVSS VL: DIQMTQSPSSLSASVGDRVTITCRASQDVYFYVAWYQQKPGKAPKLLIYGSRWLYSGVPSRFSGSGSGTDFTLTISSLQPEDFATYYCQQYSNFPVTFGQGTKVEIKR",–,4.6 nM,2.71 nM,0.81 nM
"NP18 (antibody, V domains shown) VH: EVQLVESGGGLVQPGGSLRLSCAASGFTISGGGIHWVRQAPGKGLEWVASIWPSWGSTSYADSVKGRFTISADTSKNTAYLQMNSLRAEDTAVYYCARFHNGGFLVMDYWGQGTLVTVSS VL: DIQMTQSSSSLSASVGDRVTITCRASQDVGYYVAWYQQKPGKAPKLLIYGPRFLYSGVPSRFSGSGSGTDFTLTISSLQPEDFATYYCQQYSNWPITFGQGTKVEIKR",–,7 nM,–,66.4 nM
"NP5 (antibody, V domains shown) VH: EVQLVESGGGLVQPGGSLRLSCAASGFTISNGSIHWVRQAPGKGLEWVAGIWPSGGSTSYADSVKGRFTISADTINNSAYLQMNSLRAEDTAVYYCARWNYWGQGTLVTVSS VL: DIQMTQSPSSLSASVGDRVTITCRASQDVGWSVAWYQQKPGKAPKLLIYGSRWLYSGVPSRFSGSGSGTDFTLTISSLQPEDFATYYCQQGYNGPLTFGQGTKVEIKR",–,–,4.02 nM,1.82 nM
"NP7 (antibody, V domains shown) VH: EVQLVESGGGLVQPGGSLRLSCAASGFTISNGGIHWVRQAPGKGLEWVAGIGPYGGFTSYADSVKGRFTISADTSKNTAYLQMNSLRAEDTAVYYCARFYSNYYGYHGVMDYWGQGTLVTVSS VL: DIQMTQSPSSLSASVGDRVTITCRASQDVFGWVAWYQQKPGKAPKLLISYSASLYSGVPSRFSGSGSGTDFTLTISSLQPEDFATYYCQQYFNYPLTFGQGTKVEIKR",–,–,4.13 nM,4.15 nM
"NP17 (antibody, V domains shown) VH: EVQLVESGGGLVQPGGSLRLSCAASGFTISGGSIHWVRQAPGKGLEWVASIWPFGGSTFYADSVKGRFTISADTSKNTAYLQMNSLRAEDTAVYYCARFGHGHNVIMDYWGQGTLVTVSS VL: DIQMTQSPSSLSASVGDRVTITCRASQDVGYSVAWYQQKPGKAPKLLISSPGGLYSGVPSRFSGSGSGTDFTLTISSLQPEDFATYYCQQYYDYPVTFGQGTKVEIKR",–,–,4.08 nM,2.22 nM
"NP6 (antibody, V domains shown) VH: EVQLVESGGGLVQPGGSLRLSCAASGFTINDGSIHWVRQAPGKGLEWVAGIGPFGGFTYYADSVKGRFTISADTSKNTAYLQMNSLRAEDTAVYYCARSGYSGSFDYWGQGTLVTVSS VL: DIQMTQSPSSLSASVGDRVTITCRASQDVYFGVAWYQQKPGKAPKLLIYGTSYLYSGVPSRFSGSGSGTDFTLTISSLQPEDFATYYCQQFSNWPITFGQGTKVEIKR",–,–,78.3 nM,–
"NP2 (antibody, V domains shown) VH: EVQLVESGGGLVQPGGSLRLSCAASGFTIGGGGIHWVRQAPGKGLEWVAGIWPYWGYTFYADSVKGRFTISADTSKNTAYLQMNSLRAEDTAVYYCARFWHGNLDVMDYWGQGTLVTVSS VL: DIQMTQSPSSLSASVGDRVTITCRASQDVYGYVAWYQQKPGKAPKLLIYGAAGLYSGVPSRFSGSGSGTDFTLTISSLQPEDFATYYCQQYSNFPLTFGQGTKVEIKR",4.89 nM,–,–,–
"NP24 (antibody, V domains shown) VH: EVQLVESGGGLVQPGGSLRLSCAASGFTIDDWYIHWVRQAPGKGLEWVAGIGPYGGFTYYADSVKGRFTISADTSKNTAYLQMNSLRAEDTAVYYCARGYYGSFDYWGQGTLVTVSS VL: DIQMTQSPSSLSASVGDRVTITCRASQDVGSSVAWYQQKPGKAPKLLIFYTSSLYSGVPSRFSGSGSGTDFTLTISSLQPEDFATYYCQQGWDSPVTFGQGTKVEIKR",3.17 nM,–,–,–
